From the supplement of paper PMC10567573

B1: RSPH3 (parent)
chain: QRLEEQERRHREEKERRKKQQWEI
B2: TRIM35 (parent)
chain: PTCPVCKDRASPADLRTNHTLNNL

Variants of: B1
Experiment: protein stability index of a GFP-peptide fusion (GPS, HEK-293T) (PSI 1-6); higher = more stable
Details: c terminus: a fixed tail appended
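Also: lentivirally expressed fusions sorted by FACS into six bins by GFP to DsRed ratio, PSI derived from sequencing read proportions per bin multiplied by bin number.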

Protein stability index, by site and new letter:
Q1: H 5.33, C 3.83, D 4.59, G 4.83, A 4.69, T 4.78, S 4.66, I 4.4, E 4.86, N 4.5, K 4.29, L 4.35, W 4.13, P 5.21, M 4.76, F 4.28, R 4.49, V 4.81, Y 4.42
E5: V 4.58, I 4.62, D 4.55, T 4.01, W 3.98, P 4.42, F 3.61, Q 5.01, Y 4.28, H 4.59, A 4.63, L 4.44, G 4.53, S 4.5, K 3.39, M 4.59, R 4.13, N 3.67, C 4.38
R9: M 5.37, Y 4.66, P 4.92, V 4.85, T 4.51, N 4.56, G 4.85, L 4.81, W 4.47, E 4.49, S 3.85, A 5.32, C 4.84, D 4.97, Q 4.63, K 4.21, I 4.4, F 4.98, H 5.33
Q6: K 4.19, A 4.9, C 4.63, E 4.91, P 4.47, M 3.96, H 4.39, D 4.6, F 4, R 4.42, W 4.18, Y 4.48, S 4.82, T 4.81, L 4.49, V 4.85, N 4.4, G 4.59, I 4.62
H10: E 5.26, F 4.48, K 4.84, G 4.51, A 4.94, D 4.38, I 4.5
E4: R 3.84, I 4.17, M 4.1, H 4.18, K 4.44, D 4.56, Q 4.46, N 4.9, V 3.99, C 4.38, L 4.46, P 4.48, F 4.47, S 4.84, Y 3.67, A 4.21, G 5.08, W 4.04, T 4.15
L3: N 4.59, S 4.91, F 4.2, Q 4.72, C 4.36, Y 4.43, E 5.28, M 4.81, G 4.75, I 5, V 4.82, T 4.99, D 4.82, A 4.37, W 4.06, R 5.08, H 4.54, K 4.4, P 5
E7: N 4.25, H 4.28, A 4.36, K 4.36, S 3.88, R 4.26, I 3.86, T 4.95, W 4.25, F 4.41, L 4.55, V 4.57, G 3.95, D 4.04, Q 3.38, C 4.15, P 4.75, M 3.38, Y 3.81
R2: W 3.79, I 3.83, E 5.24, K 4.26, A 4.57, P 4.1, M 4.06, F 4.48, C 4.58, T 5.02, L 4.63, Y 4.07, D 5.14, G 4.54, V 4.47, H 4.53, Q 4.94, S 5, N 5.06
R8: L 3.69, I 4.42, S 4.64, W 4.09, H 4.57, N 3.93, V 5.02, T 4.97, D 4.79, C 3.71, Q 4.61, A 4.86, P 5.03, K 4.33, F 4.28, E 4.95, G 5.02, M 3.7, Y 4.24

Variants of: B2
Experiment: as above
Details: c terminus: a fixed tail appended

Protein stability index: each site, then its substitutions
L24: P 3.83, R 1.82, D 4.37, F 3.32, H 3.58, Q 3.36, C 3.94, N 3.91, I 3.5, S 3.79, M 2.8, A 3.89, G 3.83, V 3.56, W 3, K 3.37, Y 2.76, E 4.03, T 3.62
T20: E 3.92, M 2.67, S 2.7, C 3, Q 3.06, K 2.81, N 3, P 3.23, D 3.76, G 2.76, L 2.77, H 3.03, A 3.11, W 2.09, V 3.19, F 2.59, R 2.93, Y 2.74, I 2.76
R16: T 2.95, Y 2.42, W 2.01, V 3.07
L21: H 3.66, Q 3.52, C 4.64, D 3.99, G 3.3, M 3.18, Y 2.76, S 3.42, E 3.59, K 3.13, R 2.55, T 3.07, V 2.96, A 3.22, P 3.39, W 2.18, N 3.27, F 2.62, I 2.61
N23: W 2.09, S 3.18, F 2.27, T 2.58, A 2.73, L 2.28, P 2.76, D 3.81, V 3.06, R 2.37, G 2.92, H 3.47, Y 1.88, M 2.47, C 4.21, Q 3.1, K 3.12, I 2.1, E 3.48
T17: L 2.58, S 3.13, V 2.6, E 3.29, H 3.66, F 2.52, I 3.07, G 3.18, W 2.35, P 3.34, A 2.75, N 3.09, Y 2.6, D 3.36, Q 3.28, K 3.02, C 4.21, R 3.1, M 2.67
N22: G 3.39, K 2.87, C 4.13, F 2.13, H 2.9, A 3.06, Y 2.38, T 2.76, W 2.02, I 2.65, Q 3.63, L 2.56, V 2.21, E 3.73, S 2.99, M 2.67, R 1.98, P 2.44, D 4.1
N18: H 2.94, G 3.03, Y 2.76, D 3.4, I 2.31, Q 3.3, V 2.62, W 2.16, M 2.64, E 3.75, A 2.67, T 2.86, K 2.48, F 2.53, C 3.6, P 2.83, S 2.81, L 2.6, R 2.71
H19: N 3.09, Y 3.13, C 2.95, L 3.02, V 3.04, G 3.33, Q 3.28, F 2.4, A 2.86, I 2.5, S 3.09, K 3.21, E 3.79, D 3.61, T 2.81, W 2.86, M 3.09, R 3.14, P 3.19
